# According to US8748182B2, “Mutant proteins and methods for producing them” (Heptares Therapeutics Limited, priority 2007, dated 2014):
# Where a chain is given by its changes, count along the chain named. Numbers in names are those of the source.
# B1: V229A: NTR point mutant (protein, UniProt P20789 1-424, looked up, variant V229A)
# Neurotensin receptor type 1: MHLNSSVPQGTPGEPDAQPFSGPQSEMEATFLALSLSNGSGNTSESDTAGPNSDLDVNTDIYSKVLVTAIYLALFVVGTVGNSVTAFTLARKKSLQSLQSTVHYHLGSLALSDLLILLLAMPVELYNFIWVHHPWAFGDAGCRGYYFLRDACTYATALNVASLSVERYLAICHPFKAKTLMSRSRTKKFISAIWLASALLAIPMLFTMGLQNRSGDGTHPGGLVCTPIADTATVKVVIQVNTFMSFLFPMLVISILNTVIANKLTVMVHQAAEQGRVCTVGTHNGLEHSTFNMTIEPGRVQALRHGVLVLRAVVIAFVVCWLPYHVRRLMFCYISDEQWTTFLFDFYHYFYMLTNALFYVSSAINPILYNLVSANFRQVFLSTLACLCPGWRHRRKKRPTFSRKPNSMSSNHAFSTSATRETLY
# B2: E219A: A2aR point mutant (protein, UniProt P29274 1-412, looked up, variant E219A)
# Adenosine receptor A2a: MPIMGSSVYITVELAIAVLAILGNVLVCWAVWLNSNLQNVTNYFVVSLAAADIAVGVLAIPFAITISTGFCAACHGCLFIACFVLVLTQSSIFSLLAIAIDRYIAIRIPLRYNGLVTGTRAKGIIAICWVLSFAIGLTPMLGWNNCGQPKEGKNHSQGCGEGQVACLFEDVVPMNYMVYFNFFACVLVPLLLMLGVYLRIFLAARRQLKQMESQPLPGARARSTLQKEVHAAKSLAIIVGLFALCWLPLHIINCFTFFCPDCSHAPLWLMYLAIVLSHTNSVVNPFIYAYRIREFRQTFRKIIRSHVLRQQEPFKAAGTSARVLAAHGSDGEQVSLRLNGHPPGVWANGSAPHPERRPNGYALGLVSGGSAQESQGNTGLPDVELLSHELKGVCPEPPGLDDPLAQDGAGVS
# B3: G118A: A2aR point mutant (protein, UniProt P29274 1-412, looked up, variant G118A)
# Adenosine receptor A2a: B2 Adenosine receptor A2a with G118A, A219E
# B4: S223A: A2aR point mutant (protein, UniProt P29274 1-412, looked up, variant S223A)
# Adenosine receptor A2a: B2 Adenosine receptor A2a with A219E, S223A
# B5: N284A: A2aR point mutant (protein, UniProt P29274 1-412, looked up, variant N284A)
# Adenosine receptor A2a: B2 Adenosine receptor A2a with A219E, N284A
# B6: R220A: A2aR point mutant (protein, UniProt P29274 1-412, looked up, variant R220A)
# Adenosine receptor A2a: B2 Adenosine receptor A2a with A219E, R220A
# B7: T88A: A2aR point mutant (protein, UniProt P29274 1-412, looked up, variant T88A)
# Adenosine receptor A2a: B2 Adenosine receptor A2a with T88A, A219E
# B8: V57A: A2aR point mutant (protein, UniProt P29274 1-412, looked up, variant V57A)
# Adenosine receptor A2a: B2 Adenosine receptor A2a with V57A, A219E
# B9: A231L: A2aR point mutant (protein, UniProt P29274 1-412, looked up, variant A231L)
# Adenosine receptor A2a: B2 Adenosine receptor A2a with A219E, A231L
# B10: K227A: A2aR point mutant (protein, UniProt P29274 1-412, looked up, variant K227A)
# Adenosine receptor A2a: B2 Adenosine receptor A2a with A219E, K227A
# B11: A54L: A2aR point mutant (protein, UniProt P29274 1-412, looked up, variant A54L)
# Adenosine receptor A2a: B2 Adenosine receptor A2a with A54L, A219E
# B12: G152A: A2aR point mutant (protein, UniProt P29274 1-412, looked up, variant G152A)
# Adenosine receptor A2a: B2 Adenosine receptor A2a with G152A, A219E
# B13: L241A: A2aR point mutant (protein, UniProt P29274 1-412, looked up, variant L241A)
# Adenosine receptor A2a: B2 Adenosine receptor A2a with A219E, L241A
# B14: P313A: A2aR point mutant (protein, UniProt P29274 1-412, looked up, variant P313A)
# Adenosine receptor A2a: B2 Adenosine receptor A2a with A219E, P313A
# B15: L235A: A2aR point mutant (protein, UniProt P29274 1-412, looked up, variant L235A)
# Adenosine receptor A2a: B2 Adenosine receptor A2a with A219E, L235A
# B16: Q226A: A2aR point mutant (protein, UniProt P29274 1-412, looked up, variant Q226A)
# Adenosine receptor A2a: B2 Adenosine receptor A2a with A219E, Q226A
# B17: S263A: A2aR point mutant (protein, UniProt P29274 1-412, looked up, variant S263A)
# Adenosine receptor A2a: B2 Adenosine receptor A2a with A219E, S263A
# B18: H230A: A2aR point mutant (protein, UniProt P29274 1-412, looked up, variant H230A)
# Adenosine receptor A2a: B2 Adenosine receptor A2a with A219E, H230A
# B19: E151A: A2aR point mutant (protein, UniProt P29274 1-412, looked up, variant E151A)
# Adenosine receptor A2a: B2 Adenosine receptor A2a with E151A, A219E
# B20: Q311A: A2aR point mutant (protein, UniProt P29274 1-412, looked up, variant Q311A)
# Adenosine receptor A2a: B2 Adenosine receptor A2a with A219E, Q311A
# B21: K315A: A2aR point mutant (protein, UniProt P29274 1-412, looked up, variant K315A)
# Adenosine receptor A2a: B2 Adenosine receptor A2a with A219E, K315A
# B22: G123A: A2aR point mutant (protein, UniProt P29274 1-412, looked up, variant G123A)
# Adenosine receptor A2a: B2 Adenosine receptor A2a with G123A, A219E
# B23: L267A: A2aR point mutant (protein, UniProt P29274 1-412, looked up, variant L267A)
# Adenosine receptor A2a: B2 Adenosine receptor A2a with A219E, L267A
# B24: L167A: A2aR point mutant (protein, UniProt P29274 1-412, looked up, variant L167A)
# Adenosine receptor A2a: B2 Adenosine receptor A2a with L167A, A219E
# B25: T224A: A2aR point mutant (protein, UniProt P29274 1-412, looked up, variant T224A)
# Adenosine receptor A2a: B2 Adenosine receptor A2a with A219E, T224A
# B26: K122A: A2aR point mutant (protein, UniProt P29274 1-412, looked up, variant K122A)
# Adenosine receptor A2a: B2 Adenosine receptor A2a with K122A, A219E
# B27: A204L: A2aR point mutant (protein, UniProt P29274 1-412, looked up, variant A204L)
# Adenosine receptor A2a: B2 Adenosine receptor A2a with A204L, A219E
# B28: H75A: A2aR point mutant (protein, UniProt P29274 1-412, looked up, variant H75A)
# Adenosine receptor A2a: B2 Adenosine receptor A2a with H75A, A219E
# B29: L272A: A2aR point mutant (protein, UniProt P29274 1-412, looked up, variant L272A)
# Adenosine receptor A2a: B2 Adenosine receptor A2a with A219E, L272A
# B30: P149A: A2aR point mutant (protein, UniProt P29274 1-412, looked up, variant P149A)
# Adenosine receptor A2a: B2 Adenosine receptor A2a with P149A, A219E
# B31: G114A: A2aR point mutant (protein, UniProt P29274 1-412, looked up, variant G114A)
# Adenosine receptor A2a: B2 Adenosine receptor A2a with G114A, A219E
# B32: P260A: A2aR point mutant (protein, UniProt P29274 1-412, looked up, variant P260A)
# Adenosine receptor A2a: B2 Adenosine receptor A2a with A219E, P260A
# B33: T119A: A2aR point mutant (protein, UniProt P29274 1-412, looked up, variant T119A)
# Adenosine receptor A2a: B2 Adenosine receptor A2a with T119A, A219E
# Tests used:
# [1] = Thermostability of neurotensin receptor (NTR) mutants (3H-neurotensin binding); format: physicochemical; conditions: Ligand(+) format
# Procedure: (§1) FIG. 12 Flow chart showing the two different assay formats of ligand (+) and ligand (−) used to determine receptor thermostablity.
# 3. Mutants tested for thermostability by heating in the absence of the agonist were re-tested using a slightly different assay where the mutants were heated in the presence of ^3H-neurotensin (Ligand(+) format in FIG. 12). […] All of these also have increased thermostability. • 5. Preferred combinations are • a. Nag7m F358A+A86L+1260A+F342A Tm 51° C. (neurotensin bound) • b. Nag7n F358A+H103A+1260A+F342A Tm 51° C. (neurotensin bound) • Wildtype NTR has a Tm of 35° C. with neurotensin bound.
# [2] = Thermostability of solubilised adenosine A2a receptor and mutants (radioligand binding after or during heating); format: physicochemical; conditions: Ligand(−) format, binding after the heating step
# Description: as §1
# • 1. 315 site-directed mutants made between residues 2-316 of A2aR. • 2. All of these mutants have been assayed for thermostability using an assay measuring agonist and antagonist binding after the heating step (Ligand(−) format as described in FIG. 12). • a. […] Mutations have been combined to generate mutants in a putative antagonist conformation. Wildtype A2aR has a Tm of 31° C. with ZM241385 bound. • a. Rant17 A54L+K122A+L235A Tm 48° C. (ZM241385 bound) • b. Rant19 A54L,T88A,V239A+A204L Tm 47° C. (ZM241385 bound) • c. Rant21 A54L,T88A,V239A+K122A Tm 49° C. (ZM241385 bound) • 4. Mutations from the agonist screen have been combined, but have led to only a very low level of improvement in Tm of +2° C.
Molecule,"thermostability, heated in the presence of 3H-neurotensin [1]",thermostability measured with 3H-NECA (agonist) [2],thermostability assayed with 3H-ZM241385 (antagonist) [2]
B1,improved thermostability,–,–
B2,–,improved thermostability,–
B3,–,improved thermostability,improved thermostability
B4,–,improved thermostability,–
B5,–,improved thermostability,–
B6,–,improved thermostability,–
B7,–,–,improved thermostability
B8,–,–,improved thermostability
B9,–,–,improved thermostability
B10,–,improved thermostability,–
B11,–,–,improved thermostability
B12,–,–,improved thermostability
B13,–,improved thermostability,–
B14,–,improved thermostability,–
B15,–,–,improved thermostability
B16,–,improved thermostability,–
B17,–,improved thermostability,–

Molecule,"thermostability, heated in the presence of 3H-neurotensin [1]",thermostability measured with 3H-NECA (agonist) [2],thermostability assayed with 3H-ZM241385 (antagonist) [2]
B18,–,improved thermostability,–
B19,–,–,improved thermostability
B20,–,improved thermostability,–
B21,–,improved thermostability,–
B22,–,–,improved thermostability
B23,–,improved thermostability,–
B24,–,improved thermostability,–
B25,–,improved thermostability,–
B26,–,–,improved thermostability
B27,–,–,improved thermostability
B28,–,–,improved thermostability
B29,–,improved thermostability,–
B30,–,–,improved thermostability
B31,–,improved thermostability,improved thermostability
B32,–,improved thermostability,–
B33,–,–,improved thermostability
